Patent US20190263905A1 (DINONA, published 2019)
Substitutions are numbered along the chain they refer to.

B1: recombinant humanized anti-CD66c antibody Protein ID 3004 (Vk7 + VH5) (antibody, human IgG1, V domains shown)
VH: QVQLVQSGAEVKKPGASVKISCKASGYSFTDYTMNWVRQAHGQNLEWIGLINPFHGGTVSNQRFKVKATLTVDVSTNTAYMELSRLRSDDTAVYYCVRGDPVRHYYALAYWGQGTLVTVSS
VL: DIQMTQSPSTLSASVGDRVTITCGASENVYGTLNWYQRKPGKAPKLLIYGATNLADGVPSRFSGSGSGTEYTLTISSLQPDDFATYYCQNVLSAPYTFGGGTKLEIK
notes: also called #41
B2: recombinant humanized anti-CD66c antibody Protein ID 3010 (Vk7 + VH7) (antibody, human IgG1, V domains shown)
VH: B1 VH with V18M, H41P, N44G
VL: B1 VL
notes: also called #45
B3: recombinant humanized anti-CD66c antibody Protein ID 3019 (Vk7 + VH10) (antibody, human IgG1, V domains shown)
VH: B1 VH with I20V, R38K, H41P, L70M
VL: B1 VL
notes: also called hu 3019; #51
B4: recombinant humanized anti-CD66c antibody Protein ID 3046 (Vk8 + VH7) (antibody, human IgG1, V domains shown)
VH: B1 VH with V18M, H41P, N44G
VL: B1 VL with G24R, V58M
notes: also called #74

Tests used:
[1] = molecular target: T1, CD66c (CEACAM6) on CD66c-positive A549 non-small-cell lung cancer cells (UniProt P40199 35-320, limits assumed); assay: flow cytometry on A549 cells, relative to chimeric antibody
T1 construct: whole, on cells; also called CD66c antigen; NCA-90
T1 sequence (looked up): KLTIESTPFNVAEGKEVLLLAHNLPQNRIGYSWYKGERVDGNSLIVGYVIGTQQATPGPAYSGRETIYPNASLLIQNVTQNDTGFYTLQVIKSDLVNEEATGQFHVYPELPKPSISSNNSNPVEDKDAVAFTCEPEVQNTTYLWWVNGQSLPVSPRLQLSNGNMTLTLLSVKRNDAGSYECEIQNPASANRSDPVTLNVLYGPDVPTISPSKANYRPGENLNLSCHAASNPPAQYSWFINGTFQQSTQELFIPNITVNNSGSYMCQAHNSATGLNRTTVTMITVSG
Experimental: (§1) Each expressed 96 recombinant humanized antibody was poured and reacted in a test tube containing the same amount ([…]) of CD66c-positive A549 non-small-cell lung cancer cell line at 4° C. for 30 minutes, washed with PBS, and treated with FITC-conjugated goat anti-Human IgG (DiNona Inc, Korea) was added and incubated at 4° C. for 15 minutes. After washing with PBS, the cells were analyzed with a flow cytometer (Stratedigm, S1000EXi) and the results are shown below.
(§2) Among the 96 recombinant humanized antibody candidates, eight were firstly selected based on the degree of expression, the presence of aggregation, and the degree of cell binding (Table 9 and Table 10, FIGS. 3A to 3E).

[2] = molecular target: T1, CD66c (CEACAM6) on CD66c-positive A549 …; assay: flow cytometry on CD66c-positive A549 cells, mean fluorescence
Experimental: as §1, §2

[3] = molecular target: T1, CD66c (CEACAM6) on CD66c-positive A549 …; assay: flow cytometry on CD66c-positive A549 cells, FITC anti-human IgG
Experimental: as §1, §2

[4] = molecular target: T2, Antigen CD66c (CEACAM6; Sino Biological, Inc.) (UniProt P40199 35-320); assay: ELISA, coated CEACAM6 100 ng/well, antibody 0.51 ng/ml
T2 construct: Bought antigen coated on the ELISA plate; construct not described; also called CD66c antigen; CECACAM6
T2 sequence (looked up): T1 sequence (looked up)
Experimental: (§3) Antigen CD66c (CEACAM6; Sino Biological, Inc.) and CEACAM1 antigen (Sino Biological, Inc.) were coated on a 96-well plate at 100 ng per well and then blocked. The primary antibody was diluted serially three fold from 10 ug/ml at initial concentration and was bound at 37° C. for 1 hour, and goat anti-Human Ig-HRP conjugate (Jackson ImmunoResearch) as a secondary antibody was diluted 1:10,000 and incubated at 37° C. for 30 minutes. The washing was carried out at three times between each step, and the TMB reaction was performed, stopped with 1N H₂SO₄ solution at the same amount of TMB solution (100 ul) and then OD value was measured at 450 nm.
(§4) As a result of the experiment, the binding affinities to CD66c antigen of the five kinds of recombinant humanized antibodies selected from among 96 kinds of recombinant humanized antibodies are shown in FIG. 4a, Table 12, FIG. 4b and Table 13. FIG. 4a and Table 12 show the binding capacity of the antibodies to CECACAM6 CD66c) antigen, and FIG. 4b and Table 13 are the results for the CEACAM1 (CD66a) antigen.

[5] = molecular target: T2, Antigen CD66c (CEACAM6; Sino …); assay: ELISA, coated CEACAM6 100 ng/well, antibody 4.57 ng/ml
Experimental: as §3, §4

[6] = molecular target: T2, Antigen CD66c (CEACAM6; Sino …); assay: ELISA, coated CEACAM6 100 ng/well, antibody 13.72 ng/ml
Experimental: as §3, §4

[7] = molecular target: T2, Antigen CD66c (CEACAM6; Sino …); assay: ELISA, coated CEACAM6 100 ng/well, antibody 123.46 ng/ml
Experimental: as §3, §4

[8] = molecular target: T2, Antigen CD66c (CEACAM6; Sino …); assay: ELISA, coated CEACAM6 100 ng/well, antibody 1111.11 ng/ml
Experimental: as §3, §4

[9] = molecular target: T2, Antigen CD66c (CEACAM6; Sino …); assay: ELISA, coated CEACAM6 100 ng/well, antibody 3333.33 ng/ml
Experimental: as §3, §4

[10] = molecular target: T2, Antigen CD66c (CEACAM6; Sino …); assay: ELISA, coated CEACAM6 100 ng/well, antibody 10000.00 ng/ml
Experimental: as §3, §4

[11] = molecular target: T2, Antigen CD66c (CEACAM6; Sino …); assay: ELISA, coated CEACAM6 100 ng/well, antibody 370.37 ng/ml
Experimental: as §3, §4

[12] = molecular target: T2, Antigen CD66c (CEACAM6; Sino …); assay: ELISA, coated CEACAM6 100 ng/well, antibody 41.15 ng/ml
Experimental: as §3, §4

[13] = molecular target: T2, Antigen CD66c (CEACAM6; Sino …); assay: ELISA, coated CEACAM6 100 ng/well, antibody 0.17 ng/ml
Experimental: as §3, §4

[14] = molecular target: T2, Antigen CD66c (CEACAM6; Sino …); assay: ELISA, coated CEACAM6 100 ng/well, antibody 1.52 ng/ml
Experimental: as §3, §4

| Binder | % (% gated × mean) [1] [%] | Mean [2] | % gated [3] [%] | OD 450 nm [4] [OD] | OD 450 nm [5] [OD] | OD 450 nm [6] [OD] | OD 450 nm [7] [OD] | OD 450 nm [8] [OD] | OD 450 nm [9] [OD] | OD 450 nm [10] [OD] | OD 450 nm [11] [OD] | OD 450 nm [12] [OD] | OD 450 nm [13] [OD] | OD 450 nm [14] [OD] |
| --- | --- | --- | --- | --- | --- | --- | --- | --- | --- | --- | --- | --- | --- | --- |
| B1 | 85 | 541 | 71 |  |  |  |  |  |  |  |  |  |  |  |
| B2 | 85.8 | 554 | 70 |  |  |  |  |  |  |  |  |  |  |  |
| B3 | 86.9 | 561 | 70 | 0.8 | 1.32 | 1.77 | 3.04 | 3.34 | 3.26 | 3.13 | 3.23 | 2.45 | 0.68 | 0.95 |
| B4 | 82.2 | 523 | 71 |  |  |  |  |  |  |  |  |  |  |  |
